Consider one molecule from patent CN105542007A (UNIV NANCHANG, dated 2016).

For test [1], the target named is T1, 重组表达的PSMA胞外区蛋白 (recombinant extracellular domain of prostate-specific membrane antigen, expressed in HEK-293) (UniProt Q04609 44-750, limits assumed).
T1 construct: extracellular domain; Cloned into pRAG2a via NotI/BamHI, secreted from HEK-293 cells and purified with HisTrap; also called 前列腺特异性膜抗原膜外区; PSMA蛋白; not shown: His tag (purified with HisTrap, detected with anti-His antibody)
T1 sequence (Q04609 44-750 limits assumed): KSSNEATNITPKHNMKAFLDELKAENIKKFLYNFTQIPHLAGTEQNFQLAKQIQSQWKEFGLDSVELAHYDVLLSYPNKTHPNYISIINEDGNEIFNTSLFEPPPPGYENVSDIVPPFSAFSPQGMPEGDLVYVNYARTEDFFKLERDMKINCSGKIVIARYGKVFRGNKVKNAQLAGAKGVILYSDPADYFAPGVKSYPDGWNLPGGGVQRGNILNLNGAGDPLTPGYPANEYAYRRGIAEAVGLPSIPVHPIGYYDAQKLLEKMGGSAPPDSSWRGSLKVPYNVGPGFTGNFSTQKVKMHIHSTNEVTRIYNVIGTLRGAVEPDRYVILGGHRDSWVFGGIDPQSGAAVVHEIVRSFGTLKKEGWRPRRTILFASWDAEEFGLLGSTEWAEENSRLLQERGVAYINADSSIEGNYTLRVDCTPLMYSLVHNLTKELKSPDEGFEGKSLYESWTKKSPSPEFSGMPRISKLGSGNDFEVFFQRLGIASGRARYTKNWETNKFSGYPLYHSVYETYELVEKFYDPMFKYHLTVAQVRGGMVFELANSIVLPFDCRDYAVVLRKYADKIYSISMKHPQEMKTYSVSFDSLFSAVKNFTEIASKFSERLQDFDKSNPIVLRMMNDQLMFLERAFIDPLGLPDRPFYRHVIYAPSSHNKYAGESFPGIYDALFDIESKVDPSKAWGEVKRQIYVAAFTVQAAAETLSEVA
Put plainly: indirect phage-ELISA, PSMA extracellular domain coated at 5 μg/mL, HRP-anti-M13 detection.

Test [2] deals with T2, 前列腺特异性膜抗原 (PSMA) on LNCaP prostate cancer cells (UniProt Q04609 1-750, limits assumed).
T2 construct: whole, on cells; Endogenous PSMA on fixed LNCaP cells; also called LNCaP细胞(表达PSMA)
T2 sequence (Q04609 whole entry): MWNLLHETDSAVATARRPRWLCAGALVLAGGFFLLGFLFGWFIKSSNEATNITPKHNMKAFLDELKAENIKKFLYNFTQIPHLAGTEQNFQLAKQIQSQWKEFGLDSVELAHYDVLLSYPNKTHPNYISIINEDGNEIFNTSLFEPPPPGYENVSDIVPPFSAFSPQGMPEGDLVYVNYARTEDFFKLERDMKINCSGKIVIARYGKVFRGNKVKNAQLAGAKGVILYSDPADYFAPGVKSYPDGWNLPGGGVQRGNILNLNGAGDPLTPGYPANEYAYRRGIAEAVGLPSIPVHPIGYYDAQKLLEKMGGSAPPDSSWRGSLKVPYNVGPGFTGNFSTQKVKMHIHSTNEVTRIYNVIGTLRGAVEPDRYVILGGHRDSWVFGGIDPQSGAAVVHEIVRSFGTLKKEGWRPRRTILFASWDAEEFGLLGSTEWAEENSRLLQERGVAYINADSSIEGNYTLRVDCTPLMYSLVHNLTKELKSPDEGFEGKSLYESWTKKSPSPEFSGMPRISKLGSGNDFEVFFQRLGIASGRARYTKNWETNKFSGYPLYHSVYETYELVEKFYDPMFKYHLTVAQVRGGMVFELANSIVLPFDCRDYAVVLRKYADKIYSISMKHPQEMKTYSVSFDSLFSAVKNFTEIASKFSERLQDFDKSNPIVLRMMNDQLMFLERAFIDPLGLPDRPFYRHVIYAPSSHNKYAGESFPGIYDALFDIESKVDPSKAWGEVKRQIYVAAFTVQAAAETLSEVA
Put plainly: cell ELISA on fixed LNCaP (PSMA+) against MKN45 (PSMA-) cells, HRP-anti-M13 detection, OD450.

B1: 抗前列腺特异性膜抗原单域重链抗体噬菌体阳性克隆 (phage clone displaying the anti-PSMA single-domain heavy-chain antibody of SEQ ID NO: 1) (VHH)
VHH: QLQLVESGGGLVQAGGSLRLSCAASGRTFSRYAVGWFRQAPGKEREFVSGLSWTGSSTLYADSVKGRFTFSRDNAKKMVYLQMNTLMPEDTAVYYCAARKTRGKSYEYWGQGTQVTVSS
notes: VHH selected from a naive camelid phage display library; It was tested as a phage particle and detected with anti-M13 antibody, not as a purified protein; also called 针对前列腺特异性膜抗原的单域重链抗体阳性克隆; 展示本发明所述纳米抗体的噬菌体克隆; not shown: the phage coat protein fusion and any linker or tag are not described
As to B1, the binding result in test [1] and in test [2] was “binds” in each case.
